{"source": "the supplement of paper PMC10567573", "parents": {"B1": {"name": "PBXIP1 (parent)", "chain": "FGEDGIFRHDRLRFRDFVDALEDS"}}}
{"variants_of": "B1", "assay": "protein stability index of a GFP-peptide fusion (GPS, HEK-293T) (PSI 1-6); higher = more stable", "settings": "c terminus: a fixed tail appended"}
{"variant": "FGEDFIFRHDRLRFRDFVDALEDS", "note": "[G5F]", "protein stability index": 1.66}
{"variant": "FGEDCIFRHDRLRFRDFVDALEDS", "note": "[G5C]", "protein stability index": 2.67}
{"variant": "FGEDAIFRHDRLRFRDFVDALEDS", "note": "[G5A]", "protein stability index": 3.02}
{"variant": "FGEDRIFRHDRLRFRDFVDALEDS", "note": "[G5R]", "protein stability index": 3.02}
{"variant": "FGEDLIFRHDRLRFRDFVDALEDS", "note": "[G5L]", "protein stability index": 2.54}
{"variant": "FGEDQIFRHDRLRFRDFVDALEDS", "note": "[G5Q]", "protein stability index": 3.23}
{"variant": "FGEDHIFRHDRLRFRDFVDALEDS", "note": "[G5H]", "protein stability index": 3.17}
{"variant": "FGEDEIFRHDRLRFRDFVDALEDS", "note": "[G5E]", "protein stability index": 3.68}
{"variant": "FGEDSIFRHDRLRFRDFVDALEDS", "note": "[G5S]", "protein stability index": 1.95}
{"variant": "FGEDDIFRHDRLRFRDFVDALEDS", "note": "[G5D]", "protein stability index": 3.5}
{"variant": "FGEDPIFRHDRLRFRDFVDALEDS", "note": "[G5P]", "protein stability index": 3.37}
{"variant": "FGEDTIFRHDRLRFRDFVDALEDS", "note": "[G5T]", "protein stability index": 2.88}
{"variant": "FGEDNIFRHDRLRFRDFVDALEDS", "note": "[G5N]", "protein stability index": 2.34}
{"variant": "FGEDIIFRHDRLRFRDFVDALEDS", "note": "[G5I]", "protein stability index": 2.86}
{"variant": "FGEDWIFRHDRLRFRDFVDALEDS", "note": "[G5W]", "protein stability index": 1.4}
{"variant": "FGEDYIFRHDRLRFRDFVDALEDS", "note": "[G5Y]", "protein stability index": 2.59}
{"variant": "FGEDVIFRHDRLRFRDFVDALEDS", "note": "[G5V]", "protein stability index": 3.19}
{"variant": "FGEDKIFRHDRLRFRDFVDALEDS", "note": "[G5K]", "protein stability index": 2.12}
{"variant": "FGEDMIFRHDRLRFRDFVDALEDS", "note": "[G5M]", "protein stability index": 3.23}
{"variant": "QGEDGIFRHDRLRFRDFVDALEDS", "note": "[F1Q]", "protein stability index": 4.12}
{"variant": "LGEDGIFRHDRLRFRDFVDALEDS", "note": "[F1L]", "protein stability index": 3.14}
{"variant": "KGEDGIFRHDRLRFRDFVDALEDS", "note": "[F1K]", "protein stability index": 2.64}
{"variant": "VGEDGIFRHDRLRFRDFVDALEDS", "note": "[F1V]", "protein stability index": 3.77}
{"variant": "EGEDGIFRHDRLRFRDFVDALEDS", "note": "[F1E]", "protein stability index": 4.29}
{"variant": "SGEDGIFRHDRLRFRDFVDALEDS", "note": "[F1S]", "protein stability index": 3.74}
{"variant": "CGEDGIFRHDRLRFRDFVDALEDS", "note": "[F1C]", "protein stability index": 2.39}
{"variant": "AGEDGIFRHDRLRFRDFVDALEDS", "note": "[F1A]", "protein stability index": 4.02}
{"variant": "YGEDGIFRHDRLRFRDFVDALEDS", "note": "[F1Y]", "protein stability index": 2.72}
{"variant": "TGEDGIFRHDRLRFRDFVDALEDS", "note": "[F1T]", "protein stability index": 3.08}
{"variant": "IGEDGIFRHDRLRFRDFVDALEDS", "note": "[F1I]", "protein stability index": 3.6}
{"variant": "DGEDGIFRHDRLRFRDFVDALEDS", "note": "[F1D]", "protein stability index": 4.29}
{"variant": "MGEDGIFRHDRLRFRDFVDALEDS", "note": "[F1M]", "protein stability index": 3.24}
{"variant": "NGEDGIFRHDRLRFRDFVDALEDS", "note": "[F1N]", "protein stability index": 3.81}
{"variant": "GGEDGIFRHDRLRFRDFVDALEDS", "note": "[F1G]", "protein stability index": 3.59}
{"variant": "WGEDGIFRHDRLRFRDFVDALEDS", "note": "[F1W]", "protein stability index": 3.1}
{"variant": "RGEDGIFRHDRLRFRDFVDALEDS", "note": "[F1R]", "protein stability index": 3.78}
{"variant": "HGEDGIFRHDRLRFRDFVDALEDS", "note": "[F1H]", "protein stability index": 3.76}
{"variant": "PGEDGIFRHDRLRFRDFVDALEDS", "note": "[F1P]", "protein stability index": 4.16}
{"variant": "FGEDGCFRHDRLRFRDFVDALEDS", "note": "[I6C]", "protein stability index": 2.33}
{"variant": "FGEDGQFRHDRLRFRDFVDALEDS", "note": "[I6Q]", "protein stability index": 3.86}
{"variant": "FGEDGRFRHDRLRFRDFVDALEDS", "note": "[I6R]", "protein stability index": 3.72}
{"variant": "FGEDGVFRHDRLRFRDFVDALEDS", "note": "[I6V]", "protein stability index": 2.76}
{"variant": "FGEDGPFRHDRLRFRDFVDALEDS", "note": "[I6P]", "protein stability index": 3.18}
{"variant": "FGEDGWFRHDRLRFRDFVDALEDS", "note": "[I6W]", "protein stability index": 1.96}
{"variant": "FGEDGGFRHDRLRFRDFVDALEDS", "note": "[I6G]", "protein stability index": 3.65}
{"variant": "FGEDGMFRHDRLRFRDFVDALEDS", "note": "[I6M]", "protein stability index": 1.97}
{"variant": "FGEDGTFRHDRLRFRDFVDALEDS", "note": "[I6T]", "protein stability index": 2.95}
{"variant": "FGEDGAFRHDRLRFRDFVDALEDS", "note": "[I6A]", "protein stability index": 2.23}
{"variant": "FGEDGKFRHDRLRFRDFVDALEDS", "note": "[I6K]", "protein stability index": 2.7}
{"variant": "FGEDGHFRHDRLRFRDFVDALEDS", "note": "[I6H]", "protein stability index": 4}
{"variant": "FGEDGNFRHDRLRFRDFVDALEDS", "note": "[I6N]", "protein stability index": 3.46}
{"variant": "FGEDGEFRHDRLRFRDFVDALEDS", "note": "[I6E]", "protein stability index": 4.52}
{"variant": "FGEDGYFRHDRLRFRDFVDALEDS", "note": "[I6Y]", "protein stability index": 2.24}
{"variant": "FGEDGLFRHDRLRFRDFVDALEDS", "note": "[I6L]", "protein stability index": 2.3}
{"variant": "FGEDGFFRHDRLRFRDFVDALEDS", "note": "[I6F]", "protein stability index": 1.33}
{"variant": "FGEDGSFRHDRLRFRDFVDALEDS", "note": "[I6S]", "protein stability index": 2.74}
{"variant": "FGEDGDFRHDRLRFRDFVDALEDS", "note": "[I6D]", "protein stability index": 4.38}
{"variant": "FHEDGIFRHDRLRFRDFVDALEDS", "note": "[G2H]", "protein stability index": 2.09}
{"variant": "FIEDGIFRHDRLRFRDFVDALEDS", "note": "[G2I]", "protein stability index": 1.97}
{"variant": "FSEDGIFRHDRLRFRDFVDALEDS", "note": "[G2S]", "protein stability index": 2.48}
{"variant": "FMEDGIFRHDRLRFRDFVDALEDS", "note": "[G2M]", "protein stability index": 2.91}
{"variant": "FWEDGIFRHDRLRFRDFVDALEDS", "note": "[G2W]", "protein stability index": 2.95}
{"variant": "FDEDGIFRHDRLRFRDFVDALEDS", "note": "[G2D]", "protein stability index": 3.36}
{"variant": "FNEDGIFRHDRLRFRDFVDALEDS", "note": "[G2N]", "protein stability index": 3.09}
{"variant": "FKEDGIFRHDRLRFRDFVDALEDS", "note": "[G2K]", "protein stability index": 2.81}
{"variant": "FEEDGIFRHDRLRFRDFVDALEDS", "note": "[G2E]", "protein stability index": 3.73}
{"variant": "FAEDGIFRHDRLRFRDFVDALEDS", "note": "[G2A]", "protein stability index": 1.63}
{"variant": "FFEDGIFRHDRLRFRDFVDALEDS", "note": "[G2F]", "protein stability index": 2.75}
{"variant": "FREDGIFRHDRLRFRDFVDALEDS", "note": "[G2R]", "protein stability index": 2.69}
{"variant": "FPEDGIFRHDRLRFRDFVDALEDS", "note": "[G2P]", "protein stability index": 2.61}
{"variant": "FQEDGIFRHDRLRFRDFVDALEDS", "note": "[G2Q]", "protein stability index": 2.66}
{"variant": "FLEDGIFRHDRLRFRDFVDALEDS", "note": "[G2L]", "protein stability index": 2.96}
{"variant": "FCEDGIFRHDRLRFRDFVDALEDS", "note": "[G2C]", "protein stability index": 2.83}
{"variant": "FVEDGIFRHDRLRFRDFVDALEDS", "note": "[G2V]", "protein stability index": 2.26}
{"variant": "FTEDGIFRHDRLRFRDFVDALEDS", "note": "[G2T]", "protein stability index": 2.35}
{"variant": "FYEDGIFRHDRLRFRDFVDALEDS", "note": "[G2Y]", "protein stability index": 3.09}
{"variant": "FGEPGIFRHDRLRFRDFVDALEDS", "note": "[D4P]", "protein stability index": 1.94}
{"variant": "FGELGIFRHDRLRFRDFVDALEDS", "note": "[D4L]", "protein stability index": 1.99}
{"variant": "FGESGIFRHDRLRFRDFVDALEDS", "note": "[D4S]", "protein stability index": 1.77}
{"variant": "FGEYGIFRHDRLRFRDFVDALEDS", "note": "[D4Y]", "protein stability index": 1.73}
{"variant": "FGECGIFRHDRLRFRDFVDALEDS", "note": "[D4C]", "protein stability index": 2.52}
{"variant": "FGEQGIFRHDRLRFRDFVDALEDS", "note": "[D4Q]", "protein stability index": 1.83}
{"variant": "FGERGIFRHDRLRFRDFVDALEDS", "note": "[D4R]", "protein stability index": 2.74}
{"variant": "FGEWGIFRHDRLRFRDFVDALEDS", "note": "[D4W]", "protein stability index": 1.72}
{"variant": "FGETGIFRHDRLRFRDFVDALEDS", "note": "[D4T]", "protein stability index": 2.24}
{"variant": "FGEFGIFRHDRLRFRDFVDALEDS", "note": "[D4F]", "protein stability index": 1.74}
{"variant": "FGEIGIFRHDRLRFRDFVDALEDS", "note": "[D4I]", "protein stability index": 1.73}
{"variant": "FGEKGIFRHDRLRFRDFVDALEDS", "note": "[D4K]", "protein stability index": 1.82}
{"variant": "FGEHGIFRHDRLRFRDFVDALEDS", "note": "[D4H]", "protein stability index": 1.89}
{"variant": "FGEMGIFRHDRLRFRDFVDALEDS", "note": "[D4M]", "protein stability index": 1.79}
{"variant": "FGEGGIFRHDRLRFRDFVDALEDS", "note": "[D4G]", "protein stability index": 1.17}
{"variant": "FGEVGIFRHDRLRFRDFVDALEDS", "note": "[D4V]", "protein stability index": 2.76}
{"variant": "FGENGIFRHDRLRFRDFVDALEDS", "note": "[D4N]", "protein stability index": 1.98}
{"variant": "FGEAGIFRHDRLRFRDFVDALEDS", "note": "[D4A]", "protein stability index": 1.62}
